The nanobody polyreactivity screen of Harvey et al. (2022)

Assay: yeast display, Sf9 membrane polyspecificity reagent, FACS + sequencing; frameworks hold sequencing errors
Procedure, shortened: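 Nanobodies came from a synthetic yeast display library in Saccharomyces cerevisiae BJ5465, induced with galactose for 36–48 hours and stained for 1 hour at 4 °C with 10% biotinylated, detergent-solubilized Sf9 membrane reagent. Cells were enriched on streptavidin microbeads and then FACS-sorted, with low and high (top ~1%) gates set on anti-HA fluorescence for expression and streptavidin fluorescence for reagent binding. Each polyreactivity label reflects the gate a clone came from. Genes were amplified by colony PCR, sequenced by MiSeq 2 × 250 and filtered by CDR length.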

QVQLVESGGGLVQAGGSLRLSCAASGRIFGFNALGWYRQAPGKEREFVAAMSGNGGSTYYADSVKGRFTISRDTAKNTVYLPMLSLNPEDTADYYSAASVHATYFSGARHWVKLYDWRQGTQVTVSS
polyreactivity (PSR sort gate): high polyreactivity

QVQLVESGGGLVQAGGSLRLSCAASGRTFPYYAMGWYRQAPGKERELVARIRSDGSTNYADSVKGRFTISRDNAKNTVYLQINSLKPDDTAVYDCAAKPYPSLFFHYGYWGQGTQVTVSS
polyreactivity (PSR sort gate): low polyreactivity

QVQLVESGGGLVQAGGSLRLSCAASGRTFYGNAMGWYRQAPGKERELVAGITRGGSTYYADSVKGRFTISRDNAKITVYLQMNSLKPEDTAVYYCAARAYYARFLMGYWGQVTQVTVSS
polyreactivity (PSR sort gate): high polyreactivity

QVQLVESGGGIVQAGGSLRLSCAASGLIFPWTYAMGWYRQAHGKEREFVAAITSSDGSTYYADSVKGRFTISRDNAKNTVYLQMNSLKPEDTAVYYCAAVGWDYDWDYYYWGQGTQVTVSS
polyreactivity (PSR sort gate): high polyreactivity

QVQLVESGGGLVQAGGSLRLSCAASGSIFSFYAMGWYRQAPGKERELVAAIRYSRGSTYYADSVKGRFTISRDNAKNTVYLQMNSLKPEDTAVYFCAARGGSRRFQSQAYSLPRYDYWGQGTQVTVSS
polyreactivity (PSR sort gate): high polyreactivity

QVQLEESGGGLVQAGGSLRLSCAASGYIFQSYAMGWYRQAPGTERELVAAISRGGSTYYADSVKGRFTISRDNAMNSVYLQMNSLKPEDTAVYYCNTLTVGGFRRYYYWGQGSQVTVSS
polyreactivity (PSR sort gate): high polyreactivity

QVQLVESGGGLVQAGGSLRLSCAASGRTFVGYAMGWYRQAPGKERELVAVISGRGGSTYYADSVKGRFTISRDNAKNTVYLQMNSLKPEDTAVYYCAAYVARKWTSGYWGQGTQVTVSS
polyreactivity (PSR sort gate): high polyreactivity

QVQLVESGGGLVQAGGSLRLSCAASGRIFRFYAMGWYRQAPGKERELVAVISTGGRTYYADSVKGRFTISRDNAKNTVYLQMNSLKPEDTAVYYCAAEYTTIGRYDGWHYNYWGQGTQVTVSS
polyreactivity (PSR sort gate): high polyreactivity

QVNLEESGGGLVQAGVILRLSSAASGSIFYRNAMGWYRQAPGKEREWVAAISSGGSTYYADSVKGRFTISRDNAKNTVYLQMNSLKPEETAVYYCAKDAHIWGYRDYEYWGLGTQVTVSS
polyreactivity (PSR sort gate): high polyreactivity

QVQLVESGGGLVQAGGSLRLSCAASGRTIGLNGMGWYRQAPGKERELVAGISLSGGSTNYADSVKGRFTISRDNAKNTVYLQMNSLKPEDTAVYYCAADFVYYVVNDFGWSYAYEYWGQGTQVTVSS
polyreactivity (PSR sort gate): low polyreactivity

QVQLVESGGGLVQAGGSLRLSCAASGFIFRRNAMGWYRQAPGKEREFVAAITWSGGSTYYADSVKGRFTISRDNAKDTVYLQMNSLKPEDTAVYYCAATYSQYWYTKYLNSYPGYDYWGQGTQVTVSS
polyreactivity (PSR sort gate): low polyreactivity

QVQLVESGGGLVQAGGSLRLSCAASGRTLAFYAMGWYRQAPGKERELVAAITRGGGTYYADSVKGRFTISRDNAKNTVDLQMNSLIPEDTAVYYCNADSGFRWGAFDYWGQGTQLTVSS
polyreactivity (PSR sort gate): low polyreactivity

QVQLVESGGGLVQAGGSLRLSCAASGSTFFEYTMGWYRRAPGKEREFVADIRGRDGSTSYADSVKGRFTISRDNAKNTVYLQMNSLKPEDTAVYYCATEYFPQYQSTGWYDYWGQGTQVTVSS
polyreactivity (PSR sort gate): low polyreactivity

QVQLVESGGGLVQAGGSLRLSCAASGSIFDRNAMGWYRQAPGKERELVAAISRSSGNTYYADSVKGRFTISRDNAKNTVYLQMNSLKPEDTAVYYCNKVDYWGQGTQVTVSS
polyreactivity (PSR sort gate): high polyreactivity

QVQLVESGGCLVQAGCSGRLSCAASGYTLTINVMGWDRQAPGKERELVAAITTSCASTNYADSVKGRFTISRDNAKNSVYLKMNSLKPEDTSVYYCAADYLSFVVVKLYGYWGQRTQVTVSS
polyreactivity (PSR sort gate): low polyreactivity

QVQLVESGGGLVQAGGSLRLSCAASGIIFTQNGMGVYRPAPGKERELVAAISWSAGGTYYADSVKGRFTISRDNAKNTVYLQMNSLIPEDTAVYYCNARVYNVFREFNSWGQGTQVTVSS
polyreactivity (PSR sort gate): low polyreactivity

QVQLVESGGGLVQAGGSLRLSCAASGRTFASNAMGWYTQAPGKERELVAAITISGGRTYYADSVKGRFTISRDNAKNTVYLQMNSLIPEDTAVYYCAAAKHSWRPSYYWGGYWGQGTQVTVSS
polyreactivity (PSR sort gate): low polyreactivity

QVQLVESGGGLVQAGGSLRISCAASGFIFDPYAMGWYRQAPGKERELVASINTRGDRTSYADSVKGRFTISRDNAKNTVYLQMNSLKPEDTAVYYCNADAVDQVGPDDDYWGQGTQVTVSS
polyreactivity (PSR sort gate): low polyreactivity

QVQLQESGGGLVQADGSLRLSCAASGSIFGYYYMGWYRQAPGKDRDLVATINICGITNYADSVNGRFTISRDNAKYTVYLQMNSLKPDDTAVYYCAADEFDQRDLGYWGQGTQVSVSS
polyreactivity (PSR sort gate): low polyreactivity

QVQLVESGGGLDQAGGSLRLSCAASGSIFFTYVMGWYRQAPGKERQLVAAISSDDITNYADSVKGRFTISRDNAKNTVYLQMNSLKPEDTAVYYCNADTTLYPYYDYGYYDYDYWGQGTQVTVSS
polyreactivity (PSR sort gate): low polyreactivity

QVQLVESGGGLVQAGGSLRLSCAASGGTFTYYTMGWYRQAPRKERELVAAISTGGRTYYADSVKGRFTISRDNAKNTVYLQMNSLKPEDTAVYYCDADTYTSRSRYSGSGGYDYWGQGTQVTVSS
polyreactivity (PSR sort gate): low polyreactivity

QVQLVESAGGLVQAGGSLRLSCAASGNTFYPYAMGWYRQAPGKERELVAAITSVGRTYYADSVKGRFTITRDNAKNTVYLQMNSLKPEDTAVYYCAAVVYYRGYTYNYWGQGTQVTVSS
polyreactivity (PSR sort gate): high polyreactivity

QVQLVESGGGLVQAGGILRLSCAASGSTFIYNAMGLYRQAPGKEREFVASISASGGSTRYADSVKGRFTISRDNAKNTVYLQMNSLKQEDTAVYYCAKLLYLGRWRFPAGYNHWGQGTQVTVSS
polyreactivity (PSR sort gate): high polyreactivity

QVQLVESGGGLVQAGGSLRLSCAASGRTFTFKAMGWYRQAPGKERELVAAMTSTGSTSYADSVKGRFTISRDNAKNTVYLQMNSLKPEDTAVYYCAKGYVIPYVHHVRPYGGEYLGQGTQVTVSS
polyreactivity (PSR sort gate): low polyreactivity

QVQLVESGGGLVQAGRSLRLSCAASGRIFPRNVMGWYRQAPGKERELVAAISSRGTRTYYADSVKGRFTISRDNAKNSVYLQLYSLKPEDTAVYYCAADGPYEGYDYWGQGTQVTVSS
polyreactivity (PSR sort gate): high polyreactivity

QVQLVESGGGLVQAGGSLRLSCAASGFTFSTNAMGWYRQAPGKERELVAAISPDGGTYYADSVKGRFTISRDNAKNTVYLQMNSLKPEDTAVYYCAAVWGRGVWDLYDYWGQGTQVTVSS
polyreactivity (PSR sort gate): low polyreactivity

QVQLVESGGGLVQAGGSLRLSCAASGSIFGDYAMGWYRQAPGKERELVAGITQSGSSTYYADSVKGRFTISRDNAKNTVYLQMNSLKPEDTAVYYCNKDWGPGPNEFDYWGQGTQVTVSS
polyreactivity (PSR sort gate): low polyreactivity

QVQLVESGGGLVQAGGSLRLSCAASGFIFSLYAMGWYRQAPGKERELVAAITRSGGSTYYADSVKGRFTISRDNAKNTVYLQMNSLKPEDTAVYYCAASRGRGGYGFDYWGQGTQVTVSS
polyreactivity (PSR sort gate): high polyreactivity

QVQLVESGGGLVQAGGSLRLSCAASGSTFGHYAMGWYRQAPGKERELVAVISRSGARTYYADSVKGRFTISRDNAKNTVYLQMNSLKPEDTAVYYCNAGPYGGNPFDYWGQGTQVTVSS
polyreactivity (PSR sort gate): high polyreactivity

QVQLVESGGGLVQAARSHRVSCAASGSIFWGNVKGWYRQAPGNESELVAAINSGGSTYYADSVKGRFTISRDNAKNTVYLQMNSLIPEDTAVYYCAAAINRYRGTFNYWGQGTQVSVSS
polyreactivity (PSR sort gate): high polyreactivity

QVQLVETGGGLVQAGGSLRLSCAASGSTMAYYTMGWYRQEPGKEREFVASINWGGTTTYYADSVKGRFTISRDNAKNTVYLQMNSLKPEDTAVYYCAALGLRWGRSGYYYEYYYWGQGTQVTVSS
polyreactivity (PSR sort gate): high polyreactivity

QVQLVDSGGGLVQAGGSLRLSCAASGRIFRYYAMGWYRQAPGKERELVAGINQSGGSTYYADSVKGRFTISRDNAKNTVYLQMNSLKPEDTAVYYCAAKVSWPKYDYWGQGTQVTVSS
polyreactivity (PSR sort gate): low polyreactivity

QVQLQESGGGMVQAGGSLRLSCASSGYISWADYMGWSRQAPGKERELVDGIGYGSTTYYADSVKGRFNISRDNAKNTAYLQMISLKPEDTAVYYCAVGWYSVTAYNYWGQGTQVTVSS
polyreactivity (PSR sort gate): low polyreactivity

HVQLQESGGGLLQAGGSLRLSCAASGSIFQATYMGWYRQATGKEREFVASITYGSITNYADSVKGRFTIGRDNAKDTLYLQMNSLKPEFTAVYYCAVARHYIPAFHYWGQGTQVTVSS
polyreactivity (PSR sort gate): low polyreactivity

QDQLVESGGRIVQAGGSLRLSCAASGRIFSVYARGWYRQAPGKERELVATISDGGATTYYADSVKGRFTISRDNAKNTVFFQMNSLKPEDTAVYYCAADKRGRPGLPDYDSWGQGTEVTVSS
polyreactivity (PSR sort gate): low polyreactivity

QVQLVESGGGLVQAGGSLRLSCAASGGIFDSYAMGWYRQAPGKERELVAAISRSGSTNYADSVKGRFTISRDNAKNTVYLQMYSLKPEDTAVYYCAASVRGIRYDYWGQGTQVTVSS
polyreactivity (PSR sort gate): low polyreactivity

QVQLVESGGGLVQAGGSLRLSCAASASIYAHYEMGWYRQAPGKERELVAAITASGGTTYYADSVKGRFTISRDNAKNTVYLQMNSLKPEDTAVYYCNAGKRTFLYDRDDYWGQGTQVTVSS
polyreactivity (PSR sort gate): high polyreactivity

QVQLVESVVGLVQAGGSLRLSSAASGRIFNQYGMGWYRQSPGKESELVAAIRSGDSTNYADSVKGRFTISRDNAKNTVYLQMNSLKPEDTAVYYCARDLPGDYAGFDYWGQGTQVTVSS
polyreactivity (PSR sort gate): low polyreactivity

QVQLVESGGGLVQAGGSLRLSCAASGITFDDYVMGWYRQAPGKERELVAAITRSGGRTYYADSVKGRFTISRDNAKNTVDLQMNSLKPEVTAVYYCAARHRDNRFDYWGQGTQVTVSS
polyreactivity (PSR sort gate): high polyreactivity

QVQLVESGGGLVQAGGSLRLSCAASGFIFYSYTMGWYRQAPGKERELVATISSNGGRTYYADSVKGRFTISRDNAKNTVYLQMNSLKPEDTAVYYCATDVPHGYYWSYGDYYWGQGTQVTVSS
polyreactivity (PSR sort gate): low polyreactivity

QVQLVESGGGLVQAGGSLRLSCAASGNTFDGYDMGWYRQAPGKERELVAAITNTGASTYYADSVKGRFTISRDNAKNTVYLQMNSLKPEDTAVYYCNAQDSYPEDRHGMSYWGQGTQVTVSS
polyreactivity (PSR sort gate): low polyreactivity

QVQLVESGGGLVQAGGSLRLSCAASGSTIPDYTMGWYRQAPGKEREFVAAISRIGGTYYADSVKGRFSISRDNAKNTVYLQMNSLKPEDTAVYSCNADPQGLSGRYHGFDYWGQGTQVTVSS
polyreactivity (PSR sort gate): low polyreactivity

QVHLVESGGGLVQAGGSHSLSCAASGITFPLYVMGSYRQAPGKERELVAAISASGGSTYADSVKGRFTISRDNAKNTVYLQMNSLKPEDTAVYYCNAAVYVGYEYDYWGLGTQVTVSS
polyreactivity (PSR sort gate): low polyreactivity
